Two molecules from PMC5716044 (The Journal of Experimental Medicine, 2017) can be followed below.

The target in the experiment is full-length EphA4 containing C-terminal FLAG and hexahistidine tags (EphA4-FLAGhis6) (human, UniProt P54764 20-986). Description: pull-down.

Where a chain is given by its changes, count along the chain named. Names may count otherwise.

full-length EphA4 containing C-terminal FLAG and hexahistidine tags (EphA4-FLAGhis6), sequence (P54764 20-986): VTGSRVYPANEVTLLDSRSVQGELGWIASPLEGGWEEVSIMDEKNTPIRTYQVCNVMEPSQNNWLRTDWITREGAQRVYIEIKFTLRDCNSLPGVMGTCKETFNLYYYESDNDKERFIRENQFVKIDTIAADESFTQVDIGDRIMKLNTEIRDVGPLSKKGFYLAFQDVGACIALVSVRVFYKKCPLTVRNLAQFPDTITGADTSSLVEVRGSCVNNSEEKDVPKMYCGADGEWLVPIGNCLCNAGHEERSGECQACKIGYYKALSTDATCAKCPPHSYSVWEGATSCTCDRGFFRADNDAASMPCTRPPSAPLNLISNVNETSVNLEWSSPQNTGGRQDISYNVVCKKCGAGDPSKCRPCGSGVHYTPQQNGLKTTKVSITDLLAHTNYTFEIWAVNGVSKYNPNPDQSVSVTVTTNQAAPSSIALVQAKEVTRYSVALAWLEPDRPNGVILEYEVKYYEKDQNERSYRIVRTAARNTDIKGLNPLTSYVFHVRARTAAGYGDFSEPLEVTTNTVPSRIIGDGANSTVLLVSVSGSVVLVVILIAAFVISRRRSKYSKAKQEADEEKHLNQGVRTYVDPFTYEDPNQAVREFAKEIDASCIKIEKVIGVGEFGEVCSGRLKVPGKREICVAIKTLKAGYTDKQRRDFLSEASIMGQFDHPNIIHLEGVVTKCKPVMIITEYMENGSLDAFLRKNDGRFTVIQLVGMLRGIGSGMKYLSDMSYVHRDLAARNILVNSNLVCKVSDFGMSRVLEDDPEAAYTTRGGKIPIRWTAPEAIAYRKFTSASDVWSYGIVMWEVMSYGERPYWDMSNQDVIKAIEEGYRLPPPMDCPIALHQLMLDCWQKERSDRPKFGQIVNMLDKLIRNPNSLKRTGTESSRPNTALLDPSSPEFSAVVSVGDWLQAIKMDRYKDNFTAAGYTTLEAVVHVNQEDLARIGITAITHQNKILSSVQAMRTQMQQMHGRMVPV

B1: SORLA YWTD repeat/EGF-like region (aa 758-1,076) fused to Fc, WT (Fc fusion, UniProt Q92673 758-1076, looked up)
chain: NEFILYAVRKSIYRYDLASGATEQLPLTGLRAAVALDFDYEHNCLYWSDLALDVIQRLCLNGSTGQEVIINSGLETVEALAFEPLSQLLYWVDAGFKKIEVANPDGDFRLTIVNSSVLDRPRALVLVPQEGVMFWTDWGDLKPGIYRSNMDGSAAYHLVSEDVKWPNGISVDDQWIYWTDAYLECIERITFSGQQRSVILDNLPHPYAIAVFKNEIYWDDWSQLSIFRASKYSGSQMEILANQLTGLMDMKIFYKGKNTGSNACVPRPCSLLCLPKANNSRSCRCPEDVSSSVLPSGDLMCDCPQGYQLKNNTCVKQEN
Consider B1, for which the binding result was “binds”.

B2: SORLA YWTD repeat/EGF-like region (aa 758-1,076) fused to Fc, T947M variant (Fc fusion, UniProt Q92673 758-1076, looked up)
chain: B1 chain with T190M
Consider B2, for which the binding result was “binds”.
